Here are results for 7 molecules from paper PMC5969521, “Actin-related proteins regulate the RSC chromatin remodeler by weakening intramolecular interactions of the Sth1 ATPase” (Communications Biology, 2018).

The target of data set [1] is T1, Rtt102;Arp7;Arp9;Sth1(301-1097) (budding yeast;budding yeast;budding …, UniProt P53330;Q12406;Q05123;P32597 1-157;1-477;1-467;301-1097, |||). As to the kind of experiment: EMSA. As to conditions: apparent Kd, Anisotropy: 20 mM HEPES pH 7.5, 50 mM NaCl, 2.5 mM MgCl2, 5% glycerol, 1 mM DTT, 0.1 mg/mL BSA, 1 mM AMPPNP or ADP, 50 nM DNA, 20 C, EMSA: 20 mM HEPES pH 7.5 ….
Target sequence in this assay (P32597 301-1097, one chain of several): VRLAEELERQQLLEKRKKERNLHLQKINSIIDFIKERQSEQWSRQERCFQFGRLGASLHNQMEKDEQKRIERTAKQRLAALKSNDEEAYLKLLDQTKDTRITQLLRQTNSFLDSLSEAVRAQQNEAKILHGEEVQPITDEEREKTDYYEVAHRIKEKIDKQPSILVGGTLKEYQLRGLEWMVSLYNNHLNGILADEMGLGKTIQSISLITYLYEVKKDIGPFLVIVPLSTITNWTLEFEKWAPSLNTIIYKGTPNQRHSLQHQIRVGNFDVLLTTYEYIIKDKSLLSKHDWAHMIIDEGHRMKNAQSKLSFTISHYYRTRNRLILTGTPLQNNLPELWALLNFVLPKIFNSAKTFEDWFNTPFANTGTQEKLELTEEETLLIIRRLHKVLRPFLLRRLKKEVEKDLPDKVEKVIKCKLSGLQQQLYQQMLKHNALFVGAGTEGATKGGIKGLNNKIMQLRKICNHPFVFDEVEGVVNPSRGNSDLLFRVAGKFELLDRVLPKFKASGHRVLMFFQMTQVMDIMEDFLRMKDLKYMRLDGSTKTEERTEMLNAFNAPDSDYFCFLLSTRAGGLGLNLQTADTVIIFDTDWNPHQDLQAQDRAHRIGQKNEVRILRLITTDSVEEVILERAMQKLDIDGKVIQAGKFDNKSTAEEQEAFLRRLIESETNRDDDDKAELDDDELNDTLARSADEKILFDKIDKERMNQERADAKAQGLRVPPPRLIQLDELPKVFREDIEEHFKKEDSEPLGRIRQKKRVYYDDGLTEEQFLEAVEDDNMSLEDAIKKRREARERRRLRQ

For data set [2], the target named is T2, Sth1(301-1097) (budding yeast, UniProt P32597 301-1097). Kind of data set: EMSA. Conditions: apparent Kd, Anisotropy: 20 mM HEPES pH 7.5, 50 mM NaCl, 2.5 mM MgCl2, 5% glycerol, 1 mM DTT, 0.1 mg/mL BSA, 1 mM AMPPNP or ADP, 50 nM DNA, 20 C, EMSA: 20 mM HEPES pH 7.5 …. In general terms: A gel shift assay detects complexes by their altered migration in electrophoresis.
T2 sequence (P32597 301-1097): as the sequence (P32597 301-1097, one chain of several) above

Data set [3] addresses Rtt102-Arp7/9-bound His-HSA–pHSA fragment (budding yeast) (UniProt P32597). Kind of data set: pull-down; TEV cleavage and co-purification assay: purified Sth1 constructs at 6 μM (±Arp7/9 and Rtt102) cut with TEV protease overnight, His-tagged N-terminal fragment held on Ni-NTA resin; 20 mM HEPES pH 7.5, 500 mM NaCl, 5% glycerol, 25 mM imidazole, 1 mM MgCl2, 0.1 mM AMPPNP; eluted with 250 mM imidazole; SDS-PAGE, Coomassie.

In data set [4] the target is T3, Rtt102-Arp7/9-Sth1_301–1097 (Saccharomyces cerevisiae, UniProt P32597).
T3 construct: gene STH1; quaternary complex; Sth1 residues 301-1097 (HSA, pHSA, ATPase domains), Ni-NTA purified; with Actin-related protein 7; Actin-like protein ARP9; Regulator of Ty1 transposition protein 102
T3 sequence (P32597 301-1097, one chain of several): as above
Kind of data set: phosphate release (MESG/purine nucleoside phosphorylase, […] nm). Format: biochemical. Conditions: 1 mM ATP, plasmid DNA, 2.5 mM MgCl2, pH 7.0, 22 °C; hydrolysis by the Sth1 subunit.

The target of data set [5] is T4, Rtt102-Arp7/9 (Saccharomyces cerevisiae, UniProt Q12406).
T4 construct: heterotrimer reconstituted from Rtt102 and Arp7/9 (2:1 mix, gel filtration); Rtt102 157 aa; with Actin-like protein ARP9; Regulator of Ty1 transposition protein 102
T4 sequence (Q12406 1-477): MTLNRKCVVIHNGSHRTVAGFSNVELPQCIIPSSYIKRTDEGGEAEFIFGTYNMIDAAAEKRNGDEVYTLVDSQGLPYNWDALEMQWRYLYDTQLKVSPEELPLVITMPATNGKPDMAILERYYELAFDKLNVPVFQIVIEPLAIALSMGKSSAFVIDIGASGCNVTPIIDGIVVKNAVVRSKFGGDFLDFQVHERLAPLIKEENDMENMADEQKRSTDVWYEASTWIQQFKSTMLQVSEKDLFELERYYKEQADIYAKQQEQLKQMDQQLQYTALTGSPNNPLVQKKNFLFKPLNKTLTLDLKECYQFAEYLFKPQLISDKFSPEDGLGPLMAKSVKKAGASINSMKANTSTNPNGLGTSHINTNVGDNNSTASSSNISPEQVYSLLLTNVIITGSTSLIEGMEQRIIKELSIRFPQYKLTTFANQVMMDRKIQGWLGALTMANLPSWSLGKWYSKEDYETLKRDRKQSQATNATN
T4 sequence (Q05123 1-467 partner): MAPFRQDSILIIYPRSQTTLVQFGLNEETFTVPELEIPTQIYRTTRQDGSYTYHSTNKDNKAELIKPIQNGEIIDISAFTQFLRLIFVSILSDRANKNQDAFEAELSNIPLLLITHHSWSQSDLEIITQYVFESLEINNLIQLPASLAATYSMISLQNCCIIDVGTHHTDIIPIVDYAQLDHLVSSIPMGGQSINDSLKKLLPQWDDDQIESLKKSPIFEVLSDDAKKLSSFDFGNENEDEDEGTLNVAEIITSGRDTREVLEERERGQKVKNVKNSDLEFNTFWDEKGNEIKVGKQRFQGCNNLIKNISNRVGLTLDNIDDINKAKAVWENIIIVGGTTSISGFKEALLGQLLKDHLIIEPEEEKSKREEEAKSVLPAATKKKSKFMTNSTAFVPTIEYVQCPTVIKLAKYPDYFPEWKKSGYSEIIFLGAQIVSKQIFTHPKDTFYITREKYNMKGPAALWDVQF
T4 sequence (P53330 1-157 partner): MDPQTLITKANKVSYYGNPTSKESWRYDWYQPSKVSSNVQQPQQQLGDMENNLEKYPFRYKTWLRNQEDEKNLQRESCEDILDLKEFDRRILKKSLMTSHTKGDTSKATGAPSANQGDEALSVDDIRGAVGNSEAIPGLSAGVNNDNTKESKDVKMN
As to the kind of experiment: X-ray crystallography ([…] Å). Format: binding. As to conditions: pre-incubated with 1 mM ATP; ATP bound in nucleotide cleft of Arp7, not Arp9; no cation seen; not hydrolysed.

The target of data set [6] is nucleosome (Xenopus laevis histone octamer on 601 nucleosomal DNA) (Xenopus laevis). Kind of data set: native gel or EMSA; native gel shift, 1 mM ADP; nucleosomes held constant, Sth1 constructs up to 10 μM; 20 mM HEPES pH 7.5, 50 mM NaCl, 5% glycerol, 1 mM DTT, 0.1 mg/mL BSA, 1 mM MgCl2; 30 min room temperature, gel at 4 °C; apparent KD from a single-site hyperbolic fit.

Data set [7] has the same target. As to the kind of experiment: native gel or EMSA; native gel shift, 1 mM AMPPNP; nucleosomes held constant, Sth1 constructs up to 10 μM; 20 mM HEPES pH 7.5, 50 mM NaCl, 5% glycerol, 1 mM DTT, 0.1 mg/mL BSA, 1 mM MgCl2; 30 min room temperature, gel at 4 °C; apparent KD from a single-site hyperbolic fit.
In data set [8] the target is Sth1(365-1097) P1swap (budding yeast; Rad54 segment from S. solfataricus) (UniProt P32597). Kind of data set: fluorescence anisotropy. Conditions: nucleotide state not visible in material; Anisotropy: 20 mM HEPES pH 7.5, 50 mM NaCl, 2.5 mM MgCl2, 5% glycerol, 1 mM DTT, 0.1 mg/mL BSA, 1 mM AMPPNP or ADP, 50 nM DNA, 20 C; EMSA: 20 mM HEPES pH 7.5 …. A general note: In fluorescence polarisation assays a small probe gives low polarisation when free and higher when bound to something large.
Chain of Sth1(365-1097) P1swap (budding yeast; Rad54 segment from S. solfataricus) (P32597 whole entry): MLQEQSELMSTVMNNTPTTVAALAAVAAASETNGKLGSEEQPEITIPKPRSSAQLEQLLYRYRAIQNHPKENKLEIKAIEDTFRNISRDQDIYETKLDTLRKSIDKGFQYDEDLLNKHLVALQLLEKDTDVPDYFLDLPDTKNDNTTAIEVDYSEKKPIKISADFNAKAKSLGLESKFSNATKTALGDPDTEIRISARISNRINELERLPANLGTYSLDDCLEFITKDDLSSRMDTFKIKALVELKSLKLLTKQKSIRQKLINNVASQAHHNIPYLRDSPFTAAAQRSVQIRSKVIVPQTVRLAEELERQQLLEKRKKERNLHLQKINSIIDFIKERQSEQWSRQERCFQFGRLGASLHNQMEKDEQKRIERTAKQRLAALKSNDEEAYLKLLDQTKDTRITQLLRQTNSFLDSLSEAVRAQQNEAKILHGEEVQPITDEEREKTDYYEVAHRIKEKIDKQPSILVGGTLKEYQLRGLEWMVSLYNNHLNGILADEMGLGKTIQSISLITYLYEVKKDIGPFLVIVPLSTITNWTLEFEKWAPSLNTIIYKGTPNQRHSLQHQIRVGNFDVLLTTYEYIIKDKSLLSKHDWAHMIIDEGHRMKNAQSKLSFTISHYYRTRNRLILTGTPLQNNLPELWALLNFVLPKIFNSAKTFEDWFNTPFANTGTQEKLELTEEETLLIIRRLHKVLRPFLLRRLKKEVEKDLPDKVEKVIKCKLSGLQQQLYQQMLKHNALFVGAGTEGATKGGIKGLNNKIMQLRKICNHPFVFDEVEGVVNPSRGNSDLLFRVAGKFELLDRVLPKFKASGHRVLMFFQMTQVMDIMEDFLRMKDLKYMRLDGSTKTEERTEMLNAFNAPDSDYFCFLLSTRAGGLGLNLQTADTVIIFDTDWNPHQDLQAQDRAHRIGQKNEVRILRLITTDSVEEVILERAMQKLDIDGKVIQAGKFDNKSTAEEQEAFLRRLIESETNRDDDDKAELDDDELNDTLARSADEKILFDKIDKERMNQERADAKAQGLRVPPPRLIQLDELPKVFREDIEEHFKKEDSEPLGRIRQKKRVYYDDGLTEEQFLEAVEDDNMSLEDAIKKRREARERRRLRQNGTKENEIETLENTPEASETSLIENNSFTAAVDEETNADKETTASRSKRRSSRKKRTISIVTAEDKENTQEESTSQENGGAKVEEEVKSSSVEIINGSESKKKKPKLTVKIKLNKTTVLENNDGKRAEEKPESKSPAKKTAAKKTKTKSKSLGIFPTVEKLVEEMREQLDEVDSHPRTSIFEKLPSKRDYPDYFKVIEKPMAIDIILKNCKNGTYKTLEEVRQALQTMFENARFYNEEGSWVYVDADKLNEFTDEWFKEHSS

Data set [9] deals with T1, Rtt102;Arp7;Arp9;Sth1(301-1097). As to the kind of experiment: fluorescence anisotropy; 1 mM AMPPNP; Anisotropy: 20 mM HEPES pH 7.5, 50 mM NaCl, 2.5 mM MgCl2, 5% glycerol, 1 mM DTT, 0.1 mg/mL BSA, 1 mM AMPPNP or ADP, 50 nM DNA, 20 C; EMSA: 20 mM HEPES pH 7.5, 50 mM NaCl, 1 mM MgCl2, 5% glycerol, 1 mM DTT, 0.1 mg/mL BSA, 1 mM ADP or AMPPNP, room temperature. Conditions: protein: recombinant;recombinant;recombinant;recombinant; copies: 1;1;1;1; label: 5'-fluorescein; strands 21 and 22 nt: 21 bp with 1 nt 5' overhang (T) on strand 2.
Target sequence in this assay (P32597 301-1097, chain 4 of 4, one chain of several): as the sequence (P32597 301-1097, one chain of several) above

The target in data set [10] is Arp7;Arp9;Sth1(301-1097) (budding yeast;budding yeast;budding …, UniProt Q12406;Q05123;P32597 1-477;1-467;301-1097, ||). Described as above. Conditions: protein: recombinant;recombinant;recombinant; copies: 1;1;1; label: 5'-fluorescein; strands 21 and 22 nt: 21 bp with 1 nt 5' overhang (T) on strand 2.
Chain of Arp7;Arp9;Sth1(301-1097) (P32597 301-1097, chain 3 of 3, one chain of several): as the sequence (P32597 301-1097, one chain of several) above
The target in data set [11] is T2, Sth1(301-1097). The description is as above. As to conditions: protein: recombinant; label: 5'-fluorescein; strands 21 and 22 nt: 21 bp with 1 nt 5' overhang (T) on strand 2.
For data set [12], the target named is Sth1(365-1097) (budding yeast, UniProt P32597 365-1097). Kind of data set: fluorescence anisotropy; nucleotide state not visible in material; Anisotropy: 20 mM HEPES pH 7.5, 50 mM NaCl, 2.5 mM MgCl2, 5% glycerol, 1 mM DTT, 0.1 mg/mL BSA, 1 mM AMPPNP or ADP, 50 nM DNA, 20 C; EMSA: 20 mM HEPES pH 7.5, 50 mM NaCl, 1 mM MgCl2, 5% glycerol, 1 mM DTT, 0.1 mg/mL BSA, 1 mM ADP or AMPPNP, room temperature. Conditions: protein: recombinant; label: 5'-fluorescein; strands 21 and 22 nt: 21 bp with 1 nt 5' overhang (T) on strand 2.
Chain of Sth1(365-1097) (P32597 365-1097): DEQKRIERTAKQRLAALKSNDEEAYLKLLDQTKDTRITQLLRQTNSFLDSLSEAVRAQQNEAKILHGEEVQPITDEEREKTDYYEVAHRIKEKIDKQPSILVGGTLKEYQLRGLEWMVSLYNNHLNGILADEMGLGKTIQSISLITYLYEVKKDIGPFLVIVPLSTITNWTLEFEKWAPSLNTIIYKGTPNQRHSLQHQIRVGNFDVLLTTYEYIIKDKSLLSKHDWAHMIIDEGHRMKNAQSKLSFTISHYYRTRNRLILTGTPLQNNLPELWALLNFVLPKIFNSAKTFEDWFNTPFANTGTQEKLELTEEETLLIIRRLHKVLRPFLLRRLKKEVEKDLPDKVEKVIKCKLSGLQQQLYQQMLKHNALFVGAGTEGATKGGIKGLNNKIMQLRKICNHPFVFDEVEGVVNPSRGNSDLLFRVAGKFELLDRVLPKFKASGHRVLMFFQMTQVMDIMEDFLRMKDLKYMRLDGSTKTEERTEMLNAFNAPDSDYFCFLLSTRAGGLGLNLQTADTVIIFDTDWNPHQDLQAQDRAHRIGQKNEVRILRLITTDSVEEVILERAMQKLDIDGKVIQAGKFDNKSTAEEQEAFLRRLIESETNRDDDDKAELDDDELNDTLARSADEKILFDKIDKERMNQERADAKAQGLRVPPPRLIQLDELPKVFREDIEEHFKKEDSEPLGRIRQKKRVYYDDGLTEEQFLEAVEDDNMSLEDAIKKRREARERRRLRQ

On to “601 nucleosome (Xenopus laevis core histone octamer)”, for which the Kd in data set [1] (1 mM ADP) amounted to 0.51 µM; in data set [1] (1 mM AMPPNP), 0.46 µM; in data set [2] (1 mM ADP), 0.67 µM; in data set [2] (1 mM AMPPNP), 0.67 µM.

For the molecule “untagged ATPase fragment of TEV-cleaved Sth1_(301–1097) or Sth1_(365–1097) (from UniProt P32597 432-1097) (domain or fragment)”, in data set [3], the percent of the ATPase lost after passage through the Ni-NTA column is 45%.

Turning to `Nc1ncnc2c1ncn2[C@@H]1O[C@H](COP(=O)(O)OP(=O)(O)OP(=O)(O)O)[C@@H](O)[C@H]1O` [ATP], the “phosphate release (MESG/purine nucleoside phosphorylase, 360 nm)” value in data set [4] is recorded as “displays strong DNA-dependent ATPase activity catalyzed by subunit Sth1”. For the same molecule, in [5], the “X-ray crystallography (3.25 Å)” value is recorded as “showed the presence of ATP in the nucleotide-binding cleft of Arp7 but not Arp9”.

On to “Sth1_(301–1097) (from UniProt P32597 301-1097) (domain or fragment)”, for which the Kd in [6] and in data set [7] was 0.67 µM each time.

“TCCATGTCCATGGATACGTGG / TCCACGTATCCATGGACATGGA [fluorescein DNA duplex]” registered a Kd in [8] of 0.52 µM.

For “Rtt102-Arp7/9-Sth1_(301–1097) quaternary complex (from UniProt P32597 301-1097; Q12406 1-477; Q05123 1-467; P53330 1-157)”, the values for the Kd in data set [6] and in data set [7] were 0.51 µM and 0.46 µM, respectively.

B1: fluorescein DNA duplex (dsDNA)
DNA 1: TCCATGTCCATGGATACGTGG
DNA 2: TCCACGTATCCATGGACATGGA
As to B1, the Kd in [9] came to 4.2 µM; in data set [10], 3 µM; in data set [11], 0.28 µM; in data set [12], 0.7 ± 0.01 µM.
